We go through eight molecules from patent publication US9393309B2, “Self-gelatinizable nucleic acid” (Kyoto University, priority 2011, dated 2016).

Common to all, as to type: physicochemical
A short description of data set [1]: Formation of hydrogel from nucleic acid units without ligase. The following applies: for gel formation singly or on mixing: final DNA concentration 2 mM, NaCl 150 mM; for gel formation: without DNA ligase. The procedure:
A NaCl solution was added to an ODN solution (polypodna) such that the final Na^+ concentration was 5 to 150 mM. The gel formation and the gel strength were measured by a gel strength analyzer (gel strength meter, Nakayamadenki Co., Ltd, Osaka).
A structure to be a hydrogel (a nucleic acid monomer and an estimated nucleic acid unit) in conditions at room temperature, at 5 mM to 150 mM sodium chloride concentration (150 mM is substantially physiological concentration), and not containing a DNA ligase was elucidated. […] For convenience, nucleic acid units estimated to be formed according to the number of nucleic acid monomers capable of constituting the nucleic acid unit were represented by xxxpodna (xxxpod-like structure forming nucleic acid, xxx is substituted by tri (3), tetra (4) and the like, according to the number of nucleic acid monomers capable of constituting the nucleic acid unit). In Table 2 described below, xxxpodna is an estimated nucleic acid unit, and each of xxx-Y-N is a nucleic acid monomer that can be a constituent element of the nucleic acid unit (xxxpodna) which is mentioned above thereof. When the descriptions of Ys are different from each other, different nucleic acid units can be formed. N denotes numbering of nucleic acid monomers constituting each of the estimated nucleic acid units.
Unlike (1-1) described above, gelation can be controlled by using a nucleic acid monomer including cohesive protruding ends which are not attached to themselves (that is, not palindrome sequence).

Data set [2] is described as follows: Percentage of remaining gels with the passage of time. The procedure: Gels were formed by adjusting the NaCl concentration at 150 mM in an aqueous solution containing Tetrapodna (12-14-14) (SEQ ID NOs.: 30, 31, 32 and 33) at a DNA concentration of 0.1 mM, 0.25 mM or 0.5 mM, and the percentage of the remaining gels was measured with the passage of time. The results are shown in a graph in the left upper side of FIG. 17.
Gels were formed in conditions at a certain DNA concentration (0.5 mM) and a certain NaCl concentration (150 mM), and the percentage of the remaining gels was measured with the passage of time by using Tetrapodna (respectively, SEQ ID NOs.: 2, 4, 5 and 6, SEQ ID NOs.: 18, 19, 20 and 21, SEQ ID NOs.: 22, 23, 24 and 25, SEQ ID NOs.: 26, 27, 28 and 29, as well as SEQ ID NOs.: 30, 31, 32 and 33) having various lengths of the cohesive protruding end (4, 6, 8, 10 or 12 bases). The results are shown in a graph in the left lower side of FIG. 17. […] When 12 hours had passed, the percentage of the remaining gels became about 50%.
Gels were formed by variously changing the NaCl concentrations (5 mM, 50 mM, 100 mM or 150 mM) of an aqueous solution containing Tetrapodna (12-14-14) (SEQ ID NOs.: 30, 31, 32 and 33) at a DNA concentration of 0.5 mM, and the percentage of the remaining gels was measured with the passage of time. The results are shown in a graph in the right upper side of FIG. 17. […] At a low salt concentration (5 mM), almost all the formed gels became in a sol state when about 6 hours had passed. When the salt concentration was increased to 50 mM, solation tendency was weakened, a change from a gel into a sol occurred moderately (about 40% when 12 hours had passed).
The percentage of the remaining gels was measured with the passage of time in the same manner as in (8-3) except that Tetrapodna (4-18-18) (SEQ ID NOs.: 2, 4, 5 and 6) was used instead of Tetrapodna (12-14-14) (SEQ ID NOs.: 30, 31, 32 and 33). The results are shown in a graph in the right lower side of FIG. 17. […] In (8-3), Tetrapodna (12-14-14) (the length of the cohesive protruding end is 12 bases) was used. In (8-4), Tetrapodna (4-18-18) (the length of the cohesive protruding end is 4 bases) was used.

Data set [3] in a line: Evaluation of gelation at various DNA concentrations and NaCl concentrations. Also noted: key: ◯: the mark “∘” is given to cases in which gelation was observed; X: the mark “x” is given to cases of a solution state (sol-state). Here is the method:
[…] The gel formation and the gel strength were measured by a gel strength analyzer (gel strength meter, Nakayamadenki Co., Ltd, Osaka).
Specifically, by changing the DNA concentrations of an aqueous solution of Tripodona (4-18-18) (X=4) (SEQ ID NOs.: 1, 2 and 3), Tetrapodna (4-18-18) (X=4) (SEQ ID NOs.: 2, 4, 5 and 6), Hexapodna (4-18-18) (X=4) (SEQ ID NOs.: 2, 3, 4, 7, 9 and 10) and Tetrapodna (8-16-16) (X=8) (SEQ ID NOs.: 22, 23, 24 and 25) as shown in the lines of Table 4, and by changing the NaCl concentration as shown in the rows of Table 4, whether or not a gel is formed at various DNA concentrations and NaCl concentrations was evaluated. The results are shown such that the mark “∘” is given to cases in which gelation was observed, and the mark “x” is given to cases of a solution state (sol-state).

On to “dsDNA (12-14): double strand DNA, SEQ ID NOs.: 42 and 43, 12-base ends complementary to Tetrapodna (A) (chain 1 GACTGACTCTGAACGTCAGCGTTA; chain 2 GACTGACTCTGATAACGCTGACGT; DNA, all phosphodiester, methylation of C not given here)”, for which, in data set [1], the “gel formation singly or on mixing” value is on record as “did not form a gel singly”.

B1: Tetrapodna (A): SEQ ID NOs.: 34, 35, 36 and 37, 12-base non-palindrome cohesive protruding end (nucleic acid)
DNA 1: TCAGAGTCAGTCTGCACGACATCACGTTGACGCTCGTCGA
DNA 2: TCAGAGTCAGTCTCGACGAGCGTCAATCTCGCAACGTGCA
DNA 3: TCAGAGTCAGTCTGCACGTTGCGAGACAGACGCTTGACGA
DNA 4: TCAGAGTCAGTCTCGTCAAGCGTCTGCGTGATGTCGTGCA
modifications: DNA, all phosphodiester, methylation of C not given here
Turning to B1, the “gel formation singly or on mixing” value in data set [1] is recorded as “did not form a gel singly”.

B2: Tetrapodna (10-15-15): four ODNs, SEQ ID NOs.: 26, 27, 28 and 29, 10-base cohesive protruding end (nucleic acid)
DNA 1: ACGTTAACGTTGCACGACATCAGCGTCTGACGCTCGTCGA
DNA 2: ACGTTAACGTTCGACGAGCGTCAGATCTCGCAACGCTGCA
DNA 3: ACGTTAACGTTGCAGCGTTGCGAGACAGACGCTTGACGCA
DNA 4: ACGTTAACGTTGCGTCAAGCGTCTGCGCTGATGTCGTGCA
modifications: DNA, all phosphodiester, methylation of C not given here
Consider B2, for which, in data set [1], the gel formation entry is recorded as “gels can be prepared”. Also, in data set [2] (DNA 0.5 mM, NaCl 150 mM), the “initial percentage of gels” value is “about 100%” and the “percentage of the remaining gels with the passage of time” value (from here on “percentage of the remaining gels”) is listed as “decreased with the passage of time only slightly”.

B3: Tetrapodna (12-14-14): four ODNs, SEQ ID NOs.: 30, 31, 32 and 33, 12-base palindrome cohesive protruding end (nucleic acid)
DNA 1: ACGTCATGACGTTGCACGACATCACGTTGACGCTCGTCGA
DNA 2: ACGTCATGACGTTCGACGAGCGTCAATCTCGCAACGTGCA
DNA 3: ACGTCATGACGTTGCACGTTGCGAGACAGACGCTTGACGA
DNA 4: ACGTCATGACGTTCGTCAAGCGTCTGCGTGATGTCGTGCA
modifications: DNA, all phosphodiester, methylation of C not given here
In the case of B3, the gel formation result in data set [1] is listed as “gels can be prepared”. Further, the “gel formation (percentage of gels)” value in data set [2] (DNA 0.1 mM, NaCl 150 mM) is given as “about 25%”. Moreover, the “percentage of the remaining gels” value in data set [2] (DNA 0.25 mM, NaCl 150 mM) is given as “the initial percentage of gels was increased, but the percentage of the remaining gels was decreased with the passage of time”; in data set [2] (DNA 0.5 mM, NaCl 100 mM), “decreased with the passage of time only slightly”; in data set [2] (DNA 0.5 mM, NaCl 150 mM), “decreased with the passage of time only slightly”. Moreover, the “time until almost all the formed gels became in a sol state” value in data set [2] (DNA 0.5 mM, NaCl 5 mM) is recorded as “about 6 hours”. The “change from a gel into a sol” value in data set [2] (DNA 0.5 mM, NaCl 50 mM, 12 hours) is reported as “about 40%”. Further, the “initial percentage of gels” value in data set [2] (DNA 0.5 mM, NaCl 100 mM) is reported as “about 100%”; in data set [2] (DNA 0.5 mM, NaCl 150 mM), “about 100%”.

B4: Tetrapodna (B): SEQ ID NOs.: 38, 39, 40 and 41, 12-base end complementary to Tetrapodna (A) (nucleic acid)
DNA 1: GACTGACTCTGATGCACGACATCACGTTGACGCTCGTCGA
DNA 2: GACTGACTCTGATCGACGAGCGTCAATCTCGCAACGTGCA
DNA 3: GACTGACTCTGATGCACGTTGCGAGACAGACGCTTGACGA
DNA 4: GACTGACTCTGATCGTCAAGCGTCTGCGTGATGTCGTGCA
modifications: DNA, all phosphodiester, methylation of C not given here
Consider B4, for which the “gel formation singly or on mixing” value in data set [1] is listed as “did not form a gel singly”.

B5: Tripodna(4-18-18): nucleic acid unit of three ODNs, SEQ ID NOs.: 1, 2 and 3, 4-base palindrome cohesive protruding end, CpG (nucleic acid)
DNA 1: ACGTTCGTCAACGTCTGTGCTCTCACGTTGACGCTGTCGA
DNA 2: ACGTTCGACAGCGTCAACGTGAAACGTGAAGCGTCTGCGA
DNA 3: ACGTTCGCAGACGCTTCACGTTGAGCACAGACGTTGACGA
modifications: unmodified DNA
B5: the gelation result in data set [3] (Na+ 2 mM, DNA 1.2 mM) is “X”; in data set [3] (Na+ 2 mM, DNA 1.4 mM), “◯”; in data set [3] (Na+ 10 mM, DNA 1.2 mM), “◯”; in data set [3] (Na+ 20 mM, DNA 1.0 mM), “X”; in data set [3] (Na+ 50 mM, DNA 0.7 mM) it was “X”; in data set [3] (Na+ 50 mM, DNA 0.8 mM), “X”. Moreover, the gelation result in data set [3] (Na+ 50 mM, DNA 0.9 mM) is “X”; in data set [3] (Na+ 50 mM, DNA 1.0 mM) it was “◯”; in data set [3] (Na+ 100 mM, DNA 0.7 mM) it was “◯”; in data set [3] (Na+ 100 mM, DNA 0.8 mM), “◯”; in data set [3] (Na+ 100 mM, DNA 0.9 mM) it was “◯”; in data set [3] (Na+ 150 mM, DNA 0.6 mM), “X”. Besides, the gel formation entry in data set [1] is recorded as “gels can be prepared”.

B6: Pentapodna (4-18-18): five ODNs, SEQ ID NOs.: 2, 3, 4, 7 and 8, 4-base cohesive protruding end (nucleic acid)
DNA 1: B5 DNA 2
DNA 2: B5 DNA 3
DNA 3: ACGTTCGCTGACGTTGCAGACATCACGTTGACGCTGTCGA
DNA 4: ACGTTCGTCAACGTCTGTGCTCGCAGCGTCTTAACGTCGA
DNA 5: ACGTTCGACGTTAAGACGCTGCTGTCTGCAACGTCAGCGA
modifications: unmodified DNA
B6: the gel formation entry in data set [1] was “gels can be prepared”.

B7: Tetrapodna (6-17-17): four ODNs, SEQ ID NOs.: 18, 19, 20 and 21, 6-base cohesive protruding end (nucleic acid)
DNA 1: AACGTTTACGCACGACATCAGCGTCTGGACGCTTCGTCGA
DNA 2: AACGTTTCGACGAAGCGTCCAGATCTCGTCAACGCTGCGA
DNA 3: AACGTTTCGCAGCGTTGACGAGACAGACGCTGTGACGCTA
DNA 4: AACGTTTAGCGTCACAGCGTCTGCGCTGATGTCGTGCGTA
modifications: unmodified DNA
In the case of B7, in data set [1], the gel formation result is reported as “gels can be prepared”. In addition, in data set [2] (DNA 0.5 mM, NaCl 150 mM), the “initial percentage of gels” value is on record as “about 100%” and the “percentage of the remaining gels” value is listed as “decreased with the passage of time only slightly”.
